Measured values published in publication doi:10.1101/2025.01.27.635100 (bioRxiv, 2025).
Several values for one entry are separate records, joined by “and”; a condition that tells them apart may be missing. Equal values may be shown once.

B6: P2 (PIH1D2), His tag cleaved, co-purified with S1’ (natural protein)
chain: METSSKGLLTQVTQFWNLLDDLAQSDPEGYEKFIQQQLKEGKQLCAAPEPQLCLQTRILKPKEKILFINLCQWTRIPAPQSTTHPVPLTVGKPEDTTEISDAYTVIDVAYNPDVLHAAEKDQVKKNQLIQMAMKCIEEKFQFTLSHSYHITKFRIKGSIQRMKQNLMGIQTDSIDLREKMRRELTLGQIRSSTMSNPDHFPQLLLPKDQVSGKAVCLIEEISSTEIQVEMKMPAYELKIVHDHSEKPLKIELKVELPGINSVSLCDLSVSEDDLLIEVSEKYRLHLNLPKLIDTEMTTAKFIKEKSTLIITMPLV

What was measured:
[1] = target: R1R2 complex (6xHis-R1, 3xFLAG-R2), unlabeled, NMR interaction experiments (human, UniProt Q9Y265;Q9Y230); assay: NMR titration
[2] = target: R1^D302N R2^D299N complex, double active site mutant (no hydrolysis, ATP loaded) (human, UniProt Q9Y265;Q9Y230, D302N | D299N); assay: SPR
[3] = target: T1, S1’’ (S1_(622-762)), extended version of S1_TPR3 (human, UniProt Q07617 622-762); assay: NMR
T1 sequence: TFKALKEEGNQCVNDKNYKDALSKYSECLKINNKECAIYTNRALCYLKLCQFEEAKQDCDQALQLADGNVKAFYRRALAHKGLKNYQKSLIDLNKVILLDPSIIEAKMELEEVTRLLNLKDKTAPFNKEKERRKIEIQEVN

[4] = target: B6; assay: cross-linking
[5] = target: RUVBL2 (R2) as a chain of the reconstituted R2S’P sample (human, UniProt Q9Y230 1-463); assay: cross-linking
[6] = target: RUVBL1 (R1) as a chain of the reconstituted R2S’P sample (human, UniProt Q9Y265 1-456); assay: cross-linking
[7] = target: T2, R1R2 hetero-hexamer (pETDuet:His-R1R2-FH8), preparation for cryo-EM, native MS, mass photometry and XL-MS (human, UniProt Q9Y265;Q9Y230); assay: native MS
[8] = target: T2, R1R2 hetero-hexamer …; assay: mass photometry

T2 sequence (Q9Y265 whole entry, chain 1 of 2): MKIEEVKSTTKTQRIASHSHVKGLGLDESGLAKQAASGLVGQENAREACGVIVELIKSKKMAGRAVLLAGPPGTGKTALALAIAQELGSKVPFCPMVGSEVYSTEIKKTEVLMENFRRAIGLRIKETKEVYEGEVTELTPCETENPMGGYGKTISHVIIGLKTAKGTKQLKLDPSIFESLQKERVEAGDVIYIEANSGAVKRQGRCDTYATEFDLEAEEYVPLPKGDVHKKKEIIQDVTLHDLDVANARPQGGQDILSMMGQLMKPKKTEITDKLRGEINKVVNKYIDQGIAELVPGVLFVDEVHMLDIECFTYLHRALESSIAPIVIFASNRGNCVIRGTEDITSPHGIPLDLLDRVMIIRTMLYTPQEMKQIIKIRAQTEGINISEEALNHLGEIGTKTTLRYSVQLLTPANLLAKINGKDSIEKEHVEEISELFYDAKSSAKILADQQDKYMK
T2 sequence (Q9Y230 whole entry, chain 2 of 2): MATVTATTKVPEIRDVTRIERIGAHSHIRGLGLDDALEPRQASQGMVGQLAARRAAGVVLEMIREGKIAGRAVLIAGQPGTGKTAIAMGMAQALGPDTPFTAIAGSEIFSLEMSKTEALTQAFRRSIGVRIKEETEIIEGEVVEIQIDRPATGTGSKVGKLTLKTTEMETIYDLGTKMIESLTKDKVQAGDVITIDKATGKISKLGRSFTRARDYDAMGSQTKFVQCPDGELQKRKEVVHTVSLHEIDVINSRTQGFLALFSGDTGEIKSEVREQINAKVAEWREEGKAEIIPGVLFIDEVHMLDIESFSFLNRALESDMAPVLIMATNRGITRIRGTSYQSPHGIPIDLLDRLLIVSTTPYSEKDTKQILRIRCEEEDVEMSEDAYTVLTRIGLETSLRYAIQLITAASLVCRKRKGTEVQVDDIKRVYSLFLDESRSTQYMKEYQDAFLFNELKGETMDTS
Chain of R1^D302N R2^D299N complex, double active site mutant (no hydrolysis, ATP loaded) (Q9Y265 whole entry D302N, chain 1 of 2): as the sequence (Q9Y265 whole entry, chain 1 of 2) above, with D302N counted along it
Chain of R1^D302N R2^D299N complex, double active site mutant (no hydrolysis, ATP loaded) (Q9Y230 whole entry D299N, chain 2 of 2): as the sequence (Q9Y230 whole entry, chain 2 of 2) above, with D299N counted along it
Chain of RUVBL2 (R2) as a chain of the reconstituted R2S’P sample (Q9Y230 whole entry): as the sequence (Q9Y230 whole entry, chain 2 of 2) above
Chain of RUVBL1 (R1) as a chain of the reconstituted R2S’P sample (Q9Y265 whole entry): as the sequence (Q9Y265 whole entry, chain 1 of 2) above
Chain of R1R2 complex (6xHis-R1, 3xFLAG-R2), unlabeled, NMR interaction experiments (Q9Y265 whole entry, chain 1 of 2): as above
Chain of R1R2 complex (6xHis-R1, 3xFLAG-R2), unlabeled, NMR interaction experiments (Q9Y230 whole entry, chain 2 of 2): as the sequence (Q9Y230 whole entry, chain 2 of 2) above

B1: S1_C (SPAG1 796-926), isotope-labelled NMR sample (domain or fragment)
chain: EKLPIAKPNNAYEFGQIINALSTRKDKEACAHLLAITAPKDLPMFLSNKLEGDTFLLLIQSLKNNLIEKDPSLVYQHLLYLSKAERFKMMLTLISKGQKELIEQLFEDLSDTPNNHFTLEDIQALKRQYEL
B1: binds [1].

B2: S1’P2 heterodimer, SPR preparation (complex)
chain 1: TFKALKEEGNQCVNDKNYKDALSKYSECLKINNKECAIYTNRALCYLKLCQFEEAKQDCDQALQLADGNVKAFYRRALAHKGLKNYQKSLIDLNKVILLDPSIIEAKMELEEVTRLLNLKDKTAPFNKEKERRKIEIQEVNEGKEEPGRPAGEVSMGCLASEKGGKSSRSPEDPEKLPIAKPNNAYEFGQIINALSTRKDKEACAHLLAITAPKDLPMFLSNKLEGDTFLLLIQSLKNNLIEKDPSLVYQHLLYLSKAERFKMMLTLISKGQKELIEQLFEDLSDTPNNHFTLEDIQALKRQYEL
chain 2: METSSKGLLTQVTQFWNLLDDLAQSDPEGYEKFIQQQLKEGKQLCAAPEPQLCLQTRILKPKEKILFINLCQWTRIPAPQSTTHPVPLTVGKPEDTTEISDAYTVIDVAYNPDVLHAAEKDQVKKNQLIQMAMKCIEEKFQFTLSHSYHITKFRIKGSIQRMKQNLMGIQTDSIDLREKMRRELTLGQIRSSTMSNPDHFPQLLLPKDQVSGKAVCLIEEISSTEIQVEMKMPAYELKIVHDHSEKPLKIELKVELPGINSVSLCDLSVSEDDLLIEVSEKYRLHLNLPKLIDTEMTTAKFIKEKSTLIITMPLV
B2: binds [2].

B3: S1’P2_(231-315) heterodimer, SPR preparation (complex)
chain 1: TFKALKEEGNQCVNDKNYKDALSKYSECLKINNKECAIYTNRALCYLKLCQFEEAKQDCDQALQLADGNVKAFYRRALAHKGLKNYQKSLIDLNKVILLDPSIIEAKMELEEVTRLLNLKDKTAPFNKEKERRKIEIQEVNEGKEEPGRPAGEVSMGCLASEKGGKSSRSPEDPEKLPIAKPNNAYEFGQIINALSTRKDKEACAHLLAITAPKDLPMFLSNKLEGDTFLLLIQSLKNNLIEKDPSLVYQHLLYLSKAERFKMMLTLISKGQKELIEQLFEDLSDTPNNHFTLEDIQALKRQYEL
chain 2: KMPAYELKIVHDHSEKPLKIELKVELPGINSVSLCDLSVSEDDLLIEVSEKYRLHLNLPKLIDTEMTTAKFIKEKSTLIITMPLV
B3: binds [2].

B4: P2_CS domain (P2_(231-315)) (domain or fragment)
chain: KMPAYELKIVHDHSEKPLKIELKVELPGINSVSLCDLSVSEDDLLIEVSEKYRLHLNLPKLIDTEMTTAKFIKEKSTLIITMPLV
B4: binds [3].

B5: S1’ (SPAG1 622-926), untagged, co-expressed with His-P2 (domain or fragment)
chain: TFKALKEEGNQCVNDKNYKDALSKYSECLKINNKECAIYTNRALCYLKLCQFEEAKQDCDQALQLADGNVKAFYRRALAHKGLKNYQKSLIDLNKVILLDPSIIEAKMELEEVTRLLNLKDKTAPFNKEKERRKIEIQEVNEGKEEPGRPAGEVSMGCLASEKGGKSSRSPEDPEKLPIAKPNNAYEFGQIINALSTRKDKEACAHLLAITAPKDLPMFLSNKLEGDTFLLLIQSLKNNLIEKDPSLVYQHLLYLSKAERFKMMLTLISKGQKELIEQLFEDLSDTPNNHFTLEDIQALKRQYEL
B5: binds [4]; binds [5].

B6: binds [6]; binds [5].

B7: S1’P2 heterodimer, preparation for cryo-EM, native MS, mass photometry and XL-MS (complex)
chain 1: TFKALKEEGNQCVNDKNYKDALSKYSECLKINNKECAIYTNRALCYLKLCQFEEAKQDCDQALQLADGNVKAFYRRALAHKGLKNYQKSLIDLNKVILLDPSIIEAKMELEEVTRLLNLKDKTAPFNKEKERRKIEIQEVNEGKEEPGRPAGEVSMGCLASEKGGKSSRSPEDPEKLPIAKPNNAYEFGQIINALSTRKDKEACAHLLAITAPKDLPMFLSNKLEGDTFLLLIQSLKNNLIEKDPSLVYQHLLYLSKAERFKMMLTLISKGQKELIEQLFEDLSDTPNNHFTLEDIQALKRQYEL
chain 2: METSSKGLLTQVTQFWNLLDDLAQSDPEGYEKFIQQQLKEGKQLCAAPEPQLCLQTRILKPKEKILFINLCQWTRIPAPQSTTHPVPLTVGKPEDTTEISDAYTVIDVAYNPDVLHAAEKDQVKKNQLIQMAMKCIEEKFQFTLSHSYHITKFRIKGSIQRMKQNLMGIQTDSIDLREKMRRELTLGQIRSSTMSNPDHFPQLLLPKDQVSGKAVCLIEEISSTEIQVEMKMPAYELKIVHDHSEKPLKIELKVELPGINSVSLCDLSVSEDDLLIEVSEKYRLHLNLPKLIDTEMTTAKFIKEKSTLIITMPLV
In the case of B7, the “stoichiometry N” value [7] is reported as 1 S’P2 per R1R2 hexamer and 2 S’P2 per R1R2 hexamer and the “stoichiometry N” value [8] is reported as 1 S1’P2 per R1R2 hexamer and 2 S1’P2 per R1R2 hexamer and 1 S1’P2 per R1R2 dodecamer and 2 S1’P2 per R1R2 dodecamer.
